Here are results for 45 sequences from the Immune Epitope Database (IEDB).

Targets include HLA-A*03:01; HLA-A*11:01; HLA-A*31:01; HLA-A*33:01; HLA-A*68:01.
Holding throughout (experiment): IEDB peptide-MHC binding, purified MHC/competitive/radioactivity; filed as Kd, often an IC50 or EC50 that approximates it; ≥ and ≤ were set here for values at or beyond the usual limits of such assays
Setting [1] is: source organism: Vaccinia virus WR.
The mark [2] stands for this setting: source organism: Dengue virus 3 Martinique/1243/1999.
Setting [3] is: source organism: SARS coronavirus Tor2.
The mark [4] stands for this setting: source organism: Dengue virus 1 Brazil/97-11/1997.
The mark [5] stands for this setting: source organism: Lassa virus Josiah.
Where [6] appears, read: source organism: Dengue virus 2 Jamaica/1409/1983.
The mark [7] stands for this setting: source organism: Dengue virus 4 Philippines/H241/1956.

As a reminder, the Kd is the free concentration of one partner at which half of the binding sites on the other are occupied at equilibrium, for simple one-to-one binding. With AAGIIILMEY, the Kd amounted to 6280 nM with HLA-A*03:01 (setting [1]); 1340 nM in the assay with HLA-A*11:01 (setting [1]); 1030 nM in the assay with HLA-A*31:01 (setting [1]); 7170 nM in the assay with HLA-A*33:01 (setting [1]); 1200 nM with HLA-A*68:01 (setting [1]).
For AARILSEKR, in that order: no less than 78000 nM, 6080 nM, 36.3 nM, 1070 nM and 852 nM.
On to AGLAFSIMK, for which the Kd in the assay with HLA-A*11:01 (setting [2]) was determined as 13.8 nM.
As for AIEPSGNNY, the Kd in the assay with HLA-A*03:01 (setting [1]) was no less than 59600 nM; with HLA-A*11:01 (setting [1]), 5790 nM; with HLA-A*31:01 (setting [1]), no less than 77900 nM; with HLA-A*33:01 (setting [1]) it was no less than 77700 nM; with HLA-A*68:01 (setting [1]), no less than 77700 nM.
Take AIVCRFDTR: the dissociation constant (Kd) with HLA-A*03:01 (setting [3]) is 4170 nM; with HLA-A*11:01 (setting [3]), 1210 nM; with HLA-A*31:01 (setting [3]), 133 nM; in the assay with HLA-A*33:01 (setting [3]), 329 nM; with HLA-A*68:01 (setting [3]), 563 nM.
For ALAYYNNSK, the dissociation constant (Kd) was 44.5 nM with HLA-A*03:01 (setting [3]); 29 nM with HLA-A*11:01 (setting [3]); 7570 nM with HLA-A*31:01 (setting [3]); no less than 45900 nM with HLA-A*33:01 (setting [3]); 832 nM with HLA-A*68:01 (setting [3]).
Turning to ALSTNHGHK, the dissociation constant Kd is 30 nM with HLA-A*03:01 (setting [3]); 619 nM in the assay with HLA-A*11:01 (setting [3]); 8930 nM with HLA-A*31:01 (setting [3]); no less than 46500 nM with HLA-A*33:01 (setting [3]); 3050 nM with HLA-A*68:01 (setting [3]).
With AMRCVGIGNR, the Kd with HLA-A*31:01 (setting [4]) is 872 nM.
Regarding AMSCDFNGGK, the dissociation constant (Kd) is 2000 nM in the assay with HLA-A*03:01 (setting [5]); 273 nM with HLA-A*11:01 (setting [5]); no less than 30000 nM with HLA-A*31:01 (setting [5]); no less than 24200 nM with HLA-A*33:01 (setting [5]); no less than 26700 nM with HLA-A*68:01 (setting [5]).
As to ASLPTTIAK, the Kd with HLA-A*31:01 (setting [3]) was 118 nM; with HLA-A*33:01 (setting [3]) it was no less than 40300 nM; in the assay with HLA-A*68:01 (setting [3]), 2030 nM.
With AVQTKPGLFK, the results for the Kd with HLA-A*03:01 (setting [6]) and in the assay with HLA-A*11:01 (setting [6]) were 16.6 nM and 37.9 nM, respectively.
For EITHHAVSR, the Kd with HLA-A*33:01 (setting [2]) came to 89.8 nM; in the assay with HLA-A*68:01 (setting [2]), 24.1 nM.
Regarding ETLGEKWKR, the Kd was determined as 13.4 nM with HLA-A*33:01 (setting [4]) and 69.2 nM with HLA-A*68:01 (setting [4]).
As to ETLTSVFQK, the equilibrium dissociation constant (Kd) with HLA-A*11:01 (source organism: Homo sapiens) amounted to 11 nM.
On to FLSGKGLGK, for which the dissociation constant Kd with HLA-A*03:01 (setting [4]) was found to be 6.26 nM.
Consider GMMVLKIVR, for which, in the assay with HLA-A*31:01 (setting [6]), the Kd stood at 11.3 nM.
With HAIGTSITQK, the Kd with HLA-A*68:01 (setting [4]) came out at 34.5 nM.
Regarding HLKCKVRMEK, the Kd with HLA-A*03:01 (setting [7]) turned out to be 55.4 nM.
Take IMDLHPGSGK: in the assay with HLA-A*03:01 (setting [4]), the dissociation constant Kd amounted to 60.1 nM.
On to ISQGAGWSLR, for which the Kd with HLA-A*31:01 (setting [2]) worked out at 8.62 nM.
In the case of KAIKILIGFR, the Kd in the assay with HLA-A*31:01 (source organism: Dengue virus 4 Dominica/814669/1981) is 8.62 nM.
Consider KEFKDFAAGR, for which the equilibrium dissociation constant (Kd) with HLA-A*31:01 (setting [2]) worked out at 405 nM.
On to KFQADSPKR, for which the Kd in the assay with HLA-A*31:01 (setting [4]) came to 39.9 nM.
Consider KLIHEWCCR, for which the Kd in the assay with HLA-A*31:01 (setting [2]) worked out at 39.6 nM.
KSEFQIYKK: in the assay with HLA-A*11:01 (setting [6]), the equilibrium dissociation constant (Kd) amounted to 244 nM.
In the case of KSSQRDTILK, the equilibrium dissociation constant (Kd) in the assay with HLA-A*11:01 (source organism: Mammarenavirus brazilense) amounted to 33.2 nM.
KTQVGVGVQK: the dissociation constant (Kd) with HLA-A*11:01 (setting [2]) turned out to be 59.5 nM.
Turning to LMSGRGIGK, the Kd with HLA-A*03:01 (source organism: Dengue virus 2 Peru/IQT2913/1996) was found to be 48 nM.
MGITAEWLWR: the Kd in the assay with HLA-A*31:01 (setting [2]) was found to be 88.5 nM.
In the case of MTHRRPTIEK, the Kd came to 5.64 nM with HLA-A*03:01 (setting [2]), 117 nM with HLA-A*11:01 (setting [2]) and 196 nM in the assay with HLA-A*68:01 (setting [2]).
For MVEPWLSSK, the Kd with HLA-A*11:01 (setting [7]) worked out at 648 nM.
For the sequence NMSFRDLGR, in the assay with HLA-A*33:01 (setting [6]), the Kd worked out at 8.95 nM.
Regarding PFLALGFFLR, the Kd in the assay with HLA-A*31:01 (setting [2]) worked out at 186 nM; with HLA-A*33:01 (setting [2]), 286 nM.
Turning to RILQRGLLGR, the dissociation constant (Kd) is 16.4 nM with HLA-A*03:01 (setting [4]) and no less than 70000 nM with HLA-A*31:01 (setting [4]).
In the case of RTYSDPLALR, the equilibrium dissociation constant (Kd) was 92.1 nM with HLA-A*11:01 (setting [4]), no less than 70000 nM with HLA-A*31:01 (setting [4]) and 18.8 nM with HLA-A*68:01 (setting [4]).
For the sequence SAAIDGEYR, the dissociation constant (Kd) in the assay with HLA-A*68:01 (setting [4]) is 41.6 nM.
Consider SAKLQWFVER, for which the Kd with HLA-A*31:01 (setting [2]) worked out at 34.7 nM; with HLA-A*33:01 (setting [2]) it was 83 nM.
For the sequence STSQETWNR, the Kd with HLA-A*68:01 (setting [4]) amounted to 68.8 nM.
With TFKVPHAKR, the dissociation constant Kd in the assay with HLA-A*31:01 (setting [7]) worked out at 1.2 nM; with HLA-A*33:01 (setting [7]), 15.8 nM.
In the case of TILIKVEYK, the equilibrium dissociation constant (Kd) with HLA-A*11:01 (setting [2]) was 1250 nM.
As to TLLSLTFIK, the Kd with HLA-A*03:01 (setting [4]) worked out at 1.36 nM; with HLA-A*11:01 (setting [4]), 12.3 nM.
With TTVITPMMR, the Kd in the assay with HLA-A*68:01 (setting [4]) amounted to 34.6 nM.
As for VTFKVPHAK, the Kd with HLA-A*03:01 (setting [7]) came to 10.2 nM; with HLA-A*11:01 (setting [7]) it was 53.2 nM; with HLA-A*68:01 (setting [7]), 177 nM.
YLALLAAFK: the dissociation constant (Kd) in the assay with HLA-A*03:01 (setting [6]) turned out to be 1.32 nM; with HLA-A*68:01 (setting [6]), 18.4 nM.
On to YMPSMKRFRR, for which the dissociation constant Kd is 10.2 nM with HLA-A*31:01 (setting [6]), 10.7 nM with HLA-A*33:01 (setting [6]) and 1110 nM in the assay with HLA-A*68:01 (setting [6]).
